To fix the notation:
T1: TR4 (mouse, UniProt P49117 1-596)
T1 construct: Endogenous protein, immunoprecipitated or detected with a rabbit polyclonal antibody; also called NR2C2
T1 sequence (looked up): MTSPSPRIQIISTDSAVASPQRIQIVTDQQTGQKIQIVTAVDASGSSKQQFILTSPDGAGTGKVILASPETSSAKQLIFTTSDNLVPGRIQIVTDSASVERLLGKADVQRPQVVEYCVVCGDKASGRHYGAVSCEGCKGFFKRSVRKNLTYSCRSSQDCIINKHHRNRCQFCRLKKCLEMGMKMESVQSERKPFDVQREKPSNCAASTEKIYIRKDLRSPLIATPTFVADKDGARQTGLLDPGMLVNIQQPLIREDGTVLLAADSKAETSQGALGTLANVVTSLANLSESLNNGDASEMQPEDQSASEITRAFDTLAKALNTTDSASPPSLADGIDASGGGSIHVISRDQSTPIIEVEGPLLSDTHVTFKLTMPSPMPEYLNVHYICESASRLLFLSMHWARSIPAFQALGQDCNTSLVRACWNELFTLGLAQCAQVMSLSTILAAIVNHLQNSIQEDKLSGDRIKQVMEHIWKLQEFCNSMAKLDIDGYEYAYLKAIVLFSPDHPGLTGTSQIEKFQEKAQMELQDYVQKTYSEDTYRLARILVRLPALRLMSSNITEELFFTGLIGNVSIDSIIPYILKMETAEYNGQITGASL

B1: TR2 (receptor, mouse, UniProt Q505F1 1-590, looked up)
chain: MATIEEIAHQIIDQQMGEIVTEQQTGQKIQIVTALDHSTQGKQFILANHEGSTPGKVFLTTPDAAGVNQLFFTSPDLSAPHLQLLTEKSPDQGPNKVFDLCVVCGDKASGRHYGAITCEGCKGFFKRSIRKNLVYSCRGSKDCVINKHHRNRCQYCRLQRCIAFGMKQDSVQCERKPIEVSREKSSNCAASTEKIYIRKDLRSPLAATPTFVTDSETARSAGLLDSGMFVNIHPSGIKTEPAMLMAPDKAESCQGDLSTLASVVTSLANLGKAKDLSHCGGDMPVVQSLRNGDTSFGAFHHDIQTNGDVSRAFDTLAKALTPGESSACQSPEEGMEGSPHLIAGEPSFVEKEGPLLSESHVAFRLTMPSPMPEYLNVHYIGESASRLLFLSMHWALSIPSFQALGQENSISLVKAYWNELFTLGLAQCWQVMNVATILATFVNCLHSSLQQDKMSPERRKSLMEHIFKLQEFCNSMVKLCIDGHEYAYLKAIVLFSPDHPGLENMELIERFQEKAYVEFQDYITRTYPDDTYRLSRLLLRLPALRLMNATITEELFFKGLIGNVRIDSVIPHILKMEPADYNSQIIGHSL
notes: Endogenous protein, immunoprecipitated or detected with a rabbit polyclonal antibody; also called NR2C1
B2: transcriptional intermediary factor (TIF)-1beta (other, mouse, UniProt Q62318 2-834, looked up)
chain: AASAAATAAASAATAASAASGSPGSGEGSAGGEKRPAASSAAAASAAASSPAGGGGEAQELLEHCGVCRERLRPERDPRLLPCLHSACSACLGPATPAAANNSGDGGSAGDGAMVDCPVCKQQCYSKDIVENYFMRDSGSKASSDSQDANQCCTSCEDNAPATSYCVECSEPLCETCVEAHQRVKYTKDHTVRSTGPAKTRDGERTVYCNVHKHEPLVLFCESCDTLTCRDCQLNAHKDHQYQFLEDAVRNQRKLLASLVKRLGDKHATLQKNTKEVRSSIRQVSDVQKRVQVDVKMAILQIMKELNKRGRVLVNDAQKVTEGQQERLERQHWTMTKIQKHQEHILRFASWALESDNNTALLLSKKLIYFQLHRALKMIVDPVEPHGEMKFQWDLNAWTKSAEAFGKIVAERPGTNSTGPGPMAPPRAPGPLSKQGSGSSQPMEVQEGYGFGSDDPYSSAEPHVSGMKRSRSGEGEVSGLLRKVPRVSLERLDLDLTSDSQPPVFKVFPGSTTEDYNLIVIERGAAAAAAGQAGTVPPGAPGAPPLPGMAIVKEEETEAAIGAPPAAPEGPETKPVLMPLTEGPGAEGPRLASPSGSTSSGLEVVAPEVTSAPVSGPGILDDSATICRVCQKPGDLVMCNQCEFCFHLDCHLPALQDVPGEEWSCSLCHVLPDLKEEDGSLSLDGADSTGVVAKLSPANQRKCERVLLALFCHEPCRPLHQLATDSTFSMEQPGGTLDLTLIRARLQEKLSPPYSSPQEFAQDVGRMFKQFNKLTEDKADVQSIIGLQRFFETRMNDAFGDTKFSAVLVEPPPLNLPSAGLSSQELSGPGDGP
notes: also called TIF1β; TIF113
B3: HDAC3 (enzyme, mouse, UniProt O88895 1-428, looked up)
chain: MAKTVAYFYDPDVGNFHYGAGHPMKPHRLALTHSLVLHYGLYKKMIVFKPYQASQHDMCRFHSEDYIDFLQRVSPTNMQGFTKSLNAFNVGDDCPVFPGLFEFCSRYTGASLQGATQLNNKICDIAINWAGGLHHAKKFEASGFCYVNDIVIGILELLKYHPRVLYIDIDIHHGDGVQEAFYLTDRVMTVSFHKYGNYFFPGTGDMYEVGAESGRYYCLNVPLRDGIDDQSYKHLFQPVISQVVDFYQPTCIVLQCGADSLGCDRLGCFNLSIRGHGECVEYVKSFNIPLLVLGGGGYTVRNVARCWTYETSLLVEEAISEELPYSEYFEYFAPDFTLHPDVSTRIENQNSRQYLDQIRQTIFENLKMLNHAPSVQIHDVPADLLTYDRTDEADAEERGPEENYSRPEAPNEFYDGDHDNDKESDVEI
B4: MTA1 (other, mouse, UniProt Q8K4B0 1-715, looked up)
chain: MAANMYRVGDYVYFENSSSNPYLIRRIEELNKTANGNVEAKVVCFYRRRDISSSLIALADKHATLSVCYRAGPGADTGEEGEVEEEVENPEMVDLPEKLKHQLRHRELFLSRQLESLPATHIRGKCSVTLLNETESLKSYLEREDFFFYSLVYDPQQKTLLADKGEIRVGNRYQADITDLLKEGEEDGRDQSKLETKVWEAHNPLVDKQIDQFLVVARSVGTFARALDCSSSVRQPSLHMSAAAASRDITLFHAMDTLHKNIYDISKAISALVPQGGPVLCRDEMEEWSASEANLFEEALEKYGKDFTDIQQDFLPWKSLTSIIEYYYMWKTTDRYVQQKRLKAAEAESKLKQVYIPNYNKPNPNQISASSVKATVVNGTGTPGQSPGAGRACESCYTTQSYQWYSWGPPNMQCRLCASCWTYWKKYGGLKMPTRLDGERPGPNRNNMSPHGIPARSSGSPKFAMKTRQAFYLHTTKLTRIARRLCREILRPWHAARHPYMPINSAAIKAECTARLPEASQSPLVLKQVVRKPLEAVLRYLETHPRPPKPDPVKSSSSVLSSLTPAKSAPVINNGSPTILGKRSYEQHNGVDGNMKKRLLMPSRGLANHGQTRHMGPSRNLLLNGKSYPTKVRLIRGGSLPPVKRRRMNWIDAPDDVFYMATEETRKIRKLLSSSETKRAARRPYKPIALRQSQALPLRPPPPAPVNDEPIVIED
notes: also called MTA1/2 (with MTA2)
B5: MTA2 (other, mouse, UniProt Q9R190 1-668, looked up)
chain: MAANMYRVGDYVYFENSSSNPYLVRRIEELNKTANGNVEAKVVCLFRRRDISSSLNSLADSNAREFEEESKQPGVSEQQRHQLKHRELFLSRQFESLPATHIRGKCSVTLLNETDILNQYLDKEDCFFYSLVFDPVQKTLLADQGEIRVGCKFQAEIPDRLAEGESDNRNQQKMEMKVWDPDNPLTDRQIDQFLVVARAVGTFARALDCSSSIRQPSLHMSAAAASRDITLFHAMDTLQRNGYDLAKAMSTLVPQGGPVLCRDEMEEWSASEAMLFEEALEKYGKDFNDIRQDFLPWKSLASIVQFYYMWKTTDRYIQQKRLKAAEADSKLKQVYIPTYTKPNPNQIISVGSKPGMNGAGFQKGLTCESCHTTQSAQWYAWGPPNMQCRLCASCWIYWKKYGGLKTPTQLEGAARGTTEPHSRGHLSRPEAQSLSPYTTSANRAKLLAKNRQTFLLQTTKLTRLARRMCRDLLQPRRAARRPYAPINANAIKAECSIRLPKAAKTPLKIHPLVRLPLATIVKDLVAQAPLKPKTPRGTKTPINRNQLTQNRGLGGIMVKRSYETMAGAGVPFSANGRPLASGIRSSSQPAAKRQKLNPADAPNPVVFVATKDTRALRKALTHLEMRRAARRPNLPLKVKPTLMTVRPPVPLPASSHPASTNEPIVLED
notes: also called MTA1/2 (with MTA1)

One test concerns the target T1, TR4. The test can be described thus: co-IP from untransfected MEL nuclear extract, immunoblot (summary). (A western blot detects proteins with antibodies after separation by electrophoresis.)
The target in another test is T2, Mi2β (mouse, UniProt Q6PDQ2 1-1915).
T2 construct: also called Mi2beta; Mi213
Kind of test: co-IP from untransfected MEL nuclear extract, immunoblot.

In the test “MTA2” the target is B5. Described as above.
For another test, the target named is CoREST (mouse, UniProt Q8CFE3 1-480). The test is described as above.
Test [1] addresses B2. The description is as above.
The target of the test “MTA1” is B4. The test is described as above.

T2 sequence (Q6PDQ2 whole entry): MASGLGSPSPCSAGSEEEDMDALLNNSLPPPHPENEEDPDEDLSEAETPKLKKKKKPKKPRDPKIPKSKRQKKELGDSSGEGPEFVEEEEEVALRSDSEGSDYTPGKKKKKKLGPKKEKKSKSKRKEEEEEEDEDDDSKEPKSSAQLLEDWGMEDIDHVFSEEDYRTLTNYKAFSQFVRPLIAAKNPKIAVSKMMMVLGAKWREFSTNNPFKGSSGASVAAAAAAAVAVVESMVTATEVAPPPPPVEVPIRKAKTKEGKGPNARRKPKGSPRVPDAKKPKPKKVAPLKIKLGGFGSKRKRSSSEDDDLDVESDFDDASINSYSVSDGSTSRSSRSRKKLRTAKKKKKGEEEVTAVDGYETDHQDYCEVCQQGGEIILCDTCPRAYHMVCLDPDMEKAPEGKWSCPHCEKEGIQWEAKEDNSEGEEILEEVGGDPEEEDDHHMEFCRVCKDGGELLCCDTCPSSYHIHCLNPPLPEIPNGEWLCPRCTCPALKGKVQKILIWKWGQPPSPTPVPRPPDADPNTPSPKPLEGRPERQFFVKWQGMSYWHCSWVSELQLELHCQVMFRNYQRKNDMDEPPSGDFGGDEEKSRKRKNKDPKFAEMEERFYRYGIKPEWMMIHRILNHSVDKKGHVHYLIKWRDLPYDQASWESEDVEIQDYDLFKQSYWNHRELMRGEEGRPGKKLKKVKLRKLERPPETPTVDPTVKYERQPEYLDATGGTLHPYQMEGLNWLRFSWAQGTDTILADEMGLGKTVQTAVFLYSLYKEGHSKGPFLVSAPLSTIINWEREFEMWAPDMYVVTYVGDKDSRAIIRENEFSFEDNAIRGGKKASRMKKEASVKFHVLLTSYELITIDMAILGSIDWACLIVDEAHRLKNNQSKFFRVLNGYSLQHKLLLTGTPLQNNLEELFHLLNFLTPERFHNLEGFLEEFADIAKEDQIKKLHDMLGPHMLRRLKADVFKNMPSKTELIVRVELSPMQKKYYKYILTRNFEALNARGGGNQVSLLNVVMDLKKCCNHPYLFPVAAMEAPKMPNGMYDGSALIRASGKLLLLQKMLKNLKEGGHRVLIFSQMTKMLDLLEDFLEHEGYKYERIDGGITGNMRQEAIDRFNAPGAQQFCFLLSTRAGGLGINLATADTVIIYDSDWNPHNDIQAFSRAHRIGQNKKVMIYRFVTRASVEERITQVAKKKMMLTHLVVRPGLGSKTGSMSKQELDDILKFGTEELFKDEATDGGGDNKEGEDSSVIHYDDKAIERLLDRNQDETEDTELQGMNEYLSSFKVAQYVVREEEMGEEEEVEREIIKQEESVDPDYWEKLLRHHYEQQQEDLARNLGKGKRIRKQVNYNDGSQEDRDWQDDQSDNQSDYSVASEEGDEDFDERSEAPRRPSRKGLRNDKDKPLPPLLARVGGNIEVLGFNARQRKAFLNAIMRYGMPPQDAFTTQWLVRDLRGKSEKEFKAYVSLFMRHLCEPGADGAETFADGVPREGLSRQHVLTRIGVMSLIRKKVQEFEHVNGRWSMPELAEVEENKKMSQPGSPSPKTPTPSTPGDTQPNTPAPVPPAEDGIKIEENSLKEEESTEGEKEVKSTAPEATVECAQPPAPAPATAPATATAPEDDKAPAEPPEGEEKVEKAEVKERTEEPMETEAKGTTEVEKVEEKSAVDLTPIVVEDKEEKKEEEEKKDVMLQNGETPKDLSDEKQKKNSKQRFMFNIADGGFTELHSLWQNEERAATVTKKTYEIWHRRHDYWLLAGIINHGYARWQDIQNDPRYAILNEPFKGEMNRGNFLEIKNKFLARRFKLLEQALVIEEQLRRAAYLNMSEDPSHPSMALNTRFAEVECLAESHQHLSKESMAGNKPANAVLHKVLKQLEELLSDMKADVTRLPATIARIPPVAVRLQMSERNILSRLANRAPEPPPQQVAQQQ
CoREST, sequence (Q8CFE3 whole entry): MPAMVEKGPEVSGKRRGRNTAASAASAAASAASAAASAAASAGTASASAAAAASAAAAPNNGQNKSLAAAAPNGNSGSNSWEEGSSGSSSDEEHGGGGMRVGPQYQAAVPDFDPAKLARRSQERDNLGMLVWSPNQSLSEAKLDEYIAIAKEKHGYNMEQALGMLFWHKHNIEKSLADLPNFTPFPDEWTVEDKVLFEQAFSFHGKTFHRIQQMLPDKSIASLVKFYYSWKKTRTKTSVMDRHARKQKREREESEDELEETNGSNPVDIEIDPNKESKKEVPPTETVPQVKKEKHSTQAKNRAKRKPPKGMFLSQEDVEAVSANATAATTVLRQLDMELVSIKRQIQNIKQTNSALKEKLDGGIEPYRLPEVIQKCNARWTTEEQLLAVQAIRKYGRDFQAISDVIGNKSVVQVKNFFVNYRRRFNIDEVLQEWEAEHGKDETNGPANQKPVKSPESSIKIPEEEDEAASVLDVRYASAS
Procedure for TR4: Nuclear extracts were prepared from untransfected, induced MEL cells and incubated with protein G beads coupled with antibodies against proteins shown at the top of the images, or with a control IgG; 150 μg of nuclear extract protein was used for each lane. Immunoprecipitates with the antibody-coupled beads, and 10% of the input (15 μg protein) were subjected to SDS-PAGE followed by immunoblotting with antibodies against proteins shown to the left of the images. For immunoprecipitation, antibodies against TR2, TR4, DNMT1, HDAC3, and TIF113 were used in the left panels.
Antibodies were coupled to Dynabeads protein G (Invitrogen) by incubating for 2 hr at 4° C. with rotation according to the manufacturer's instructions. The beads were then incubated with nuclear extracts (150 μg protein) prepared from untransfected MEL cells for 2 hr at 4° C. After washing the beads with ice-cold phosphate buffered saline (PBS) three times, immunoprecipitated proteins were eluted by boiling in 1× Laemmli sample buffer and then subjected to immunoblotting.

For B1, the binding result with TR4 was “binds”.
Take B2: the binding result in the test with Mi2β is given as “no binding”.
For B3, the binding result (in the test with MTA2; with Mi2β; with CoREST; in test [1]; with MTA1) was “no binding” throughout.
Turning to B4, the binding result in test [1] was “no binding”.
B5: in test [1], the binding result is “no binding”.

The values above are taken from patent publication US20130059806A1 (REGENTS OF THE UNIVERSITY OF MICHIGAN, published 2013).
